# Results as given in the RNAGym collection of RNA variant scans (doi:10.1073/pnas.2313332121).
# B1: TPR t1 (parent)
# chain: GACCAAUCUGCCCUCAGAGCUCGAGAACAUCUUCGGAUGCAGAGGAGGCAGGCUUCGGUGGCGCGAUAGCGCCAACGUCCUCAACCUCCAAUGCAUCCCACCACAUGAUGAUGCCUGAAGAGCCUUGGUUUUUUG
# Variants of: B1
# Assay: polymerase ribozyme fitness, log enrichment relative to wild type (log ratio); higher = more active; in vitro selection for triplet polymerase activity
# In short: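 Each subunit of a heterodimeric triplet polymerase ribozyme was represented by a PCR-built, transcribed mutant library that underwent triplicate single-round in vitro selection with frozen incubation at −7 °C. Extended constructs were recovered by gel excision, streptavidin-bead capture and RT-PCR, and Illumina sequencing of input and output libraries kept genotypes with ≥10 input reads and ≥1 read per output. Fitness is the logarithm of genotype enrichment relative to wild-type enrichment, from inverse-variance-weighted replicate averages, with a logarithm base of 2.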
row,Variant,polymerase ribozyme fitness (log ratio)
1,C12U C80U,-0.606
2,C13U C56U G60C C73A,-0.677
3,C12U A91U,-1.85
4,C13U C15U A37U A41U U59G,-1.74
5,C12U G45U,-0.901
6,C12U G45A,-1.24
7,C12U G48U,-0.505
8,C13A A111C,-1.39
9,C13A A111U,-4.17
10,C13G G48A C73A,-1.93
11,C13G C98U,-2.7
12,C12U C15G G63U G120U,-0.846
13,C13G C56A,-1.9
14,C13A A29G C53U U106C,-5.28
15,C13U C15A G63C,-4.06
16,C12U G35A C62U G117A,-6.59
17,C13A G110C,-4.52
18,C12U G61U A105U,-1.42
19,C13A U38A C53U C89A,-4.39
20,C12U G135U,0.000607
21,C13A C94A C124A,0.414
22,C12U C56A G63U C89U C124A,-4.63
23,C13A A46G U125G,-3.19
24,C13G G60U G93A C104U U129A,-4.29

row,Variant,polymerase ribozyme fitness (log ratio)
1,C13G C88A U130G,-3.24
2,C13U A27U C79A,-3.24
3,C13G C62U A100C U112C,-1.47
4,C13U C34A G71C A121U,-2.27
5,C13G A83U A95C G110A G120U,-3.42
6,C12U G39C C64U A84U,-0.905
7,C13A G58C,-1.37
8,C13G U21A G52C G61U A91C G120C,-2.36
9,C13A U32C A100C,-2.75
10,C12U C64A,-5.62
11,C12U C64U,0.0316
12,C13G C82A C102A U130G,-4.93
13,C13A G63A,-2.44
14,C13U C28G G63U C98U C115U,-5.89
15,C13G A26C C40U C79U C85U G120C,-6.15
16,C13G C72U,-1.8
17,C12U C56U,0.248
18,C13G A37G A41C A121U,-0.739
19,C13G G23U A29C G69A C97A U112G U126G,-6.55
20,C13G G71U U112C,-0.426
21,C12U G19U A90C,-2.37
22,C13U A18C A37C C49U A121C,-2.39
23,C13U C20A U38G,-4.15
24,C12U G63U C70A C82A C115A G128A,-1.07

row,Variant,polymerase ribozyme fitness (log ratio)
1,C13G C124G,0.288
2,C13G C124A,1.06
3,C12U U87C,1.04
4,C13G C34G,-5.23
5,C13U C34U A111C C124U,-5.41
6,C13A C124U U132A,-1.61
7,C13A C62A G120U,-1.17
8,C13G G48U C53A,-2.34
9,C13A C70G C123A,-2.2
10,C13U C56G U59G A95C,-2.3
11,C12U C15U G17A C64U A83C C85A G117U,-2.73
12,C13G C56A A74G C101G U112C U130A,-3.67
13,C13G A50U G61U,-3.51
14,C12U G57C,0.562
15,C12U C89G,-0.883
16,C13U A74U G93C G113A,-1.26
17,C13A G23U G61C C88U C98G U112A G113A,-5.88
18,C12U C89U A100C U133G,-1.42
19,C12U G61U U109G G120U,-4.29
20,C13G G52U A75G,-3.6
21,C12U C72A C80U,-0.362
22,C13U C28G C53G U78G C88A U106A G110A A111G,-1.49
23,C12U C80G G128C U130C,-4.44
24,C13G C15A U106A C123A,-1.05

row,Variant,polymerase ribozyme fitness (log ratio)
1,C12U G17U C28U G39A G42C C56U C70G U106A U109C U112C,-6.21
2,C13U A84U G113U U116A A119G G135U,-6.59
3,C13A G52A G128C,-4.3
4,C13G C114U,-2.83
5,C13G A50G G51C G57U A74U,-3.43
6,C12U G113A U125A,-0.67
7,C13G G127A,-2.49
8,C12U C13U C40G C76A G77A U131C,-0.917
9,C13G C15A A18C C79U G120U,-2.11
10,C13U C40A G61A,-0.491
11,C12U G48A U54G A121U U129G,0.00313
12,C13A A100U,-2.85
13,C13U C62G U130C G135U,-1.67
14,C13A G60C A84G,-2.96
15,C13G G128C,-3.48
16,C13G G45U C82U G113A,-2.94
17,C13U A37U C64U U92A U126C,-3.51
18,C12U G23A U130C,-5.34
19,C13U C34A C70A U106A C114A,-6.64
20,C12U U55C G71A A90G G113U,-2.97
21,C13A G36C G60U A66U A95C,-6.15
22,C13G U106C,-2.21
23,C13A A16G G61A C79G G113C,-5.27
24,C13G G63U C123A,-0.659

row,Variant,polymerase ribozyme fitness (log ratio)
1,C13G C53A,-1.86
2,C12U C94A,-0.148
3,C12U C94U,-0.204
4,C12U C49G,-0.764
5,C13G A26U G47A C82U,-5.11
6,C12U G63A C124G G127U,1.79
7,C13A U129A,-2.8
8,C13G C64U,-0.666
9,C13A G17C,-4.33
10,C12U U14G U32C G51A C56U G57U G127A,-5.28
11,C13G G47U,-3.12
12,C13A G61A C82U C124U,-0.178
13,C13A U112A,-0.401
14,C13G C104U,-0.77
15,C13G C85U,-2.91
16,C13U A37U C64G G93C A105U G110U U129G,-7.07
17,C12U C34A U132A,-1.35
18,C13A C76G,-2.51
19,C12U G61U C88A,-0.482
20,C12U U92G U96A,-2.63
21,C13A C70A,-3.18
22,C13U A50U A66G C88U A90U U109A U116C,-5.37
23,C13A G44C C56U C124A,0.969
24,C13G U59A A91U C115U,-4.42

row,Variant,polymerase ribozyme fitness (log ratio)
1,C13U A83C U112C,1.79
2,C13A C72G C94A C124A,0.278
3,C13U C53G C56A G65A,-7.29
4,C12U C70U U129C,-0.46
5,C13G A41C C97A C115A G128A,-7.05
6,C13G C53G C115A,-1.47
7,C12U C34A G71U U78G U125A,-3.95
8,C13U C15G G57U G93A G117A,-1.62
9,C13A G61A A66U A121U U129G,-0.637
10,C13A G19A G52C C76G A118U C124A U133A,-4.56
11,C12U C72U,-0.537
12,C12U C72G,0.149
13,C13G G47U C49U C73A,-3.52
14,C12U G60C U109G,-4
15,C13U C40A G120A U131G,-0.101
16,C12U C40U G42C C80A C88G C102A A111G C123U U134G,-6.19
17,C13G G63U C102A,-5.61
18,C13A U106A G110A,-2.53
19,C13A C40A C56U,-2.79
20,C13G C49G,-2.28
21,C13A C40A,-2.4
22,C12U G45U G77C,-0.677
23,C13A A29G C73G C79U U125G,-4.63
24,C13A C104U A118C C124A,-0.374

row,Variant,polymerase ribozyme fitness (log ratio)
1,C12U C31G A37G G45U A50C G51U C102A G117U,-7.15
2,C12U C99A,-3.9
3,C13G A90U C124U U129C,-3.28
4,C13A G71A G120A A121U,-0.704
5,C12U C62U C70G G93A,-5.44
6,C13A G39C U59G C104U,-1.47
7,C13G U81C,-1.96
8,C13G A119U,0.114
9,C13A C34A G69A U96A C115A,-7.14
10,C13G C28G G42C,-6.24
11,C13A G23A A66G G69A U78C C85U A90U U96G C123U,-6.29
12,C12U U54A C56A A91C C115U,-1.35
13,C12U C22U C28U C124A,-4.02
14,C13U A43C A50U C73U C86U U96G A108U G117U,-6.8
15,C12U C94U U112C,1.32
16,C13A A37C A118U,-1.38
17,C13A G39U C56A,-2.45
18,C12U C56U G69U U112G A119U,-2.27
19,C13G G63C C70A C124A,0.905
20,C12U C53U C80G C82U A90G,-2.24
21,C12U U130G,0.00659
22,C13G C104U C123A U125G,0.46
23,C12U C85G,-0.35
